Source: PMC3114041, “Architectures of archaeal GINS complexes, essential DNA replication initiation factors” (BMC Biology, 2011)

Columns and labels:
[1] = molecular target: Thermococcus kodakaraensis Gins51ΔC (Met1-Arg130) (Thermococcus kodakaraensis); assay: SEC; Superdex 200 PC 3.2/30 on a SMART system; 50 mM Tris-HCl pH 8.0, 0.15 M NaCl, 7 mM β-mercaptoethanol, 0.1 mM EDTA; 20 μl of each protein at 20 μM; fractions on SDS-PAGE
[2] = molecular target: the molecule itself; assay: as above
[3] = molecular target: the molecule itself; assay: SEC + other: electron microscopy; data not shown (Ogino et al.)

Molecule	stoichiometry N [2]	also measured
Thermococcus kodakaraensis Gins51ΔC (Met1-Arg130) (domain or fragment)	–	stoichiometry N [1]: 2
Thermococcus kodakaraensis Gins51 (natural protein, UniProt Q5JF31 1-188, looked up, Gins51 subunit of the GINS complex of Thermococcus kodakaraensis; gins51 gene cloned into pET21a; also called TkoGins51; AB-type subunit of TkoGINS; source: E. coli codonPlus (DE3)-RIL, co-expressed with Gins23, purified (heat 80°C, HiTrap Phenyl, hydroxyapatite, HiTrap Q)) MDIVKLRELLEAELSSTDLNELDEDFYVEFDSLIKALKLSAESSRERGEDVEERLYLAQLKIAESLMKEIIKLRLHKIVDLAVEGKIAEMTAEEKRLFNVIRAFIEREELPEISEEVQPQEESEAEAEYRSKEVPKEAYIIQIDLPAVLGPDMKEYGPFMAGDMAIIPTVIGRALVEREAARRVRIFL	2	–
Thermococcus kodakaraensis Gins23 (natural protein, UniProt Q5JIT2 1-164, looked up, Gins23 subunit of the GINS complex of Thermococcus kodakaraensis; gins23 gene cloned into modified pET28 (thrombin site replaced by a TEV protease site); 94 to 100 and 132 to 133 missing); The final atomic model holds seven amino acids derived from the N-terminal tag; also called TkoGins23; BA-type subunit of TkoGINS; source: E. coli codonPlus (DE3)-RIL, co-expressed with Gins51, purified (heat …) MFTGKALIAVKVMKPFGDWKSGDIVLVEDWKARELWEAGVVEIVDETDKIIGEIDKVIAEERESEPLTLLPEGLYERAEFYAYYLENYVRLNPRESVDTINVKLTKLANLRKKLRDLKLIRFNKILKAVMLRPNSLELLSRLAPEERRIYLQMSKIRNEWLGDA	2	–
Thermoplasma acidophilum GINS subunit (TacGins) (natural protein, UniProt Q9HJC8 1-233, looked up, TacGins, conserved hypothetical protein of Thermoplasma acidophilum, gene Ta1042 cloned into pET21a; the homology model counts residues 1 to 233; also called Ta1042; source: E. coli BL21 codonPlus (DE3)-RIL, purified (heat 60°C, polyethyleneimine, HiTrap Phenyl, HiTrap Q)) MKPADIDKLISEIRTAIYAEQSHRKIIEIDPDIYRKVRAALSDLQAEASEYFQKQDIENYLTMNNRFQTLKRDFRSLFQRRFEKIVAKAIYDISGETLSLLTDEEKEFIEKIHNIITEEFESFIPKREEKNEARAEAQPAPADESPTAIADQKPQEEPQVVQDQHQPPAEIPSENIEIKKEDGRYVLVMITEDLPPIAQLDRNYSLHSNDLVYLPQDLASILAKRKVALVLDQ	–	stoichiometry N [3]: 4
